Source: patent publication US20090291081A1 (AbbVie / Abbott, published 2009)
“And” between values parts separate entries of the source, which are not always exact repeats. Equal entries are not always repeated.

B1: ABT2-66 (other)
VH: EVQLLESGGGLVQPGGSLRLSCAASGFTFSHYTMAWVRQAPGKGLEWVSTIGSSGNSTYYADSVKGRFTISRDNSKNTLYLQMNSLRAEDTAVYYCAQMRGPYYTFDYRGQGTLVTVSS
B2: ABT2-43 (other)
VL: DIQMTQSPSSLSASVGDRVTITCRASQNIDTYLTWYQQKPGKAPRLLIYGASTLQSGVPSRFSGSGSGTDFTLTISSLQPEDFATYYCQQRAYYPTTFGQGTKVEIKR
B3: ABT2-6 (other)
VL: DIQMTQSPSSLSASVGDRVTITCRASQSIGLLLTWYQQKPGKAPKLLIYMASQLQSGVPSRFSGSGSGTDFTLTISSLQPEDFATYYCQQWHRPPSTFGQGTKVEIKR
B4: ABT2-8 (other)
VL: DIQMTQSPSSLSASVGDRVTITCRASQSIKSMLAWYQQKPGKAPKLLIYMASNLQSGVPSRFSGSGSGTDFTLTISSLQPEDFATYYCQQTIVKPSTFGQGTKVEIKR
B5: ABT2-7 (other)
VL: DIQMTQSPSSLSASVGDRVTITCRASQSIKSGLNWYQQKPGKAPKLLIYMASQLQSGVPSRFSGSGSGTDFTLTISSLQPEDFATYYCQQWHRPPSTFGQGTKVEIKR
B6: ABT2-68 (other)
VL: DIQMTQSPSSLSASVGDRVTITCRASQNIWYHLNWYQQKPGKAPKLLIYLGSRLQSGVPSRFSGSGSGTDFTLTISSLQPEDFATYYCQQIHHDPFTFGQGTKVEIKR
B7: ABT2-39 (other)
VH: EVQLLESGGGLVQPGGSLRLSCAASGFTFRAYDMGWVRQAPGKGLEWVSVIYAWGTSTYYADSVKGRFTISRDNSKNTLYLQMNSLRAEDTAVYYCAKIDRDASLPTGEGFDYWGQGTLVTVSS
B8: ABT2-67 (other)
VL: DIQMTQSPSSLSASVGDRVTITCRASQYIGEHLAWYQQKPGKAPKLLIYHNSALQSGVPSRFSGSGSGTDFTLTISSLQPEDFATYYCQQHAFLPNTFGQGTKVEIKR
B9: ABT2-108/ABT1-141-25 hu IgG1/K wt (bispecific antibody, V domains shown)
VH: EVQLLESGGGLVQPGGSLRLSCAASGFTFAEYTMMWVRQAPGKGLEWVSRIGQDGKNTYYADSVKGRFTISRDNSKNTLYLQMNSLRAEDTAVYYCAKYTGRVGVHHLFDYWGQGTLVTSS
VL: DIQMTQSPSSLSASVGDRVTITCRASQWIQKQLAWYQQKPGKAPKLLIYSSSYLQSGVPSRFSGSGSGTDFTLTISSLQPEDFATYYCQQHLRVPMTFGQGTKVEIKR
B10: ABT2-64 (other)
VH: EVQLLESGGGLVQPGGSLRLSCAASGFTFDDYGMGWVRQAPGKGLEWVSLIYPFGGGTYYADSVKGRFTISRDNSKNTLYLQMNSLRAEDTAVYYCAKVTQTGKFDYWGQGTLVTVSS
B11: ABT2-11 (other)
VH: EVQLLESGGGLVQPGGSLRLSCAASGFTFDNYSMTWVRQAPGKGLEWVSAISGSGGSTYYADSVKGRFTISRDNSKNTLYLQMNSLRAEDTAVYYCAKCIDRLPCLFDYWGQGTLVTVSS
B12: ABT2-35 (other)
VH: EVQLLESGGGLVQPGGSLRLSCAASGFTFGEYDMAWVRQAPGKGLEWVSVIYAWGTSTYYADSVKGRFTISRDNSKNTLYLQMNSLRAEDTAVYYCAKMGGGLVSLPQSKFDYWGQGTLVTVSS
B13: ABT2-65-17/ABT1-122-511 hu IgG1/K wt (bispecific antibody, V domains shown)
VH: EVQLLESGGGLVQPGGSLRLSCVASGFTFEDYQMGWVRQAPGKGLEWVSSISAMGNRTYYADSVKGRFTISRDDSKNTLYLQMNSLRAEDTAVYYCAQNLVRLGRSRWMFDYWGQGTLVTVSS
VL: DIQMTQSPSSLSASVGDRVTITCRASQPIWTELNWYQQKPGKAPKLLIYGSSSLQRGVPSRFSGSGSGTDFTLTISSLQPEDFATYYCKQFAYFPATFGQGTKVEIKR
B14: ABT2-65-512 (other)
VH: EVQLLESGGGLVQPGGSLRLSCVASGFTFEDYQMGWVHQAPGKGLEWVSSISAMGNRTYYADSVKGRFTISRDDSKNTLYLQMNSLRAEDTAVYYCAQNLVRLGRSRWMFDYWGQGTLVTVSS
B15: ABT2-108-620x/ABT1-122-513 huIgG1/K w (bispecific antibody, V domains shown)
VH: EVQLLESGGGLVQPGGSLRLSCAASGFTFAEESWMWVRQAPGKGLEWVSRIGQDGKNTYYREDVKGRFTISRDNSKNTLYLQMNSLRAEDTAVYYCAKYTGRIMGHHLFDYWGQGTLVTVSS
VL: DIQMTQSPSSLSASVGDRVTITCRASQPIWTELNWYQQKPGKAPKLLIYGSGSRQRGVPSRFSGSGSGTDFTLTISSLQPEDFATYYCKQFAYFPATFGQGTKVEIKR
B16: ABT2-65-34 (other)
VH: EVQLLESGGGLVQPGGSLRLSCAASGFTFEDYQMGWVRQAPGKGLEWVSSISAMGNRTYYADSVKGRFTISRDDSKNTLYLQMNSLRAEDTAVYYCAQNLVRTRSKRWMFDYWGQGTLVTVSS
B17: ABT2-65-510 (other)
VH: EVQLLESGGGLVQPGGSLRLSCVASGFTFEDYQMGWVRQAPGKGLEWVSSISAMGNRTYYADSVKGRFTISRDDSENTLYLQMNSLRAEDTAVYYCAQNLVRLGRSRWMFDYWGQGTLVTVSS
B18: ABT2-65-35 (other)
VH: EVQLLESGGGLVQPGGSLRLSCVASGFTFEDYQMGWVRQAPGKGLEWVSSISAMGNRTYYADSVKGRFTISRDDSKNTLYLQMNSLRAEDTAVYYCAQNLVRLRRSRWMFDYWGQGTLVTVSS
B19: ABT2-65-504 (other)
VH: EVQLLESGGGLVQPGGSLRLSCVASGFTFEDYQMGWVRQAPGKGLERVSSVSAMGNRTHYADSVKGRFTISRDDSKNTLYLQMNSLRAGDTAVYYCAQNLVRLGRSRWMFDYWGQGTLVTVSS
B20: ABT2-65-163 (other)
VH: EVQLLESGGGLVQPGGSLRLSCVASGFTFEDYQMGWVRQAPGKGLEWVSSISAMGGRTYYADSVKGRFTISRDDSKNTLYLQMNSLRAEDTAVYYCAQNLVRLGRSRWMFDYWGQGTLVTVSS
B21: ABT2-65-160 (other)
VH: EVQLLESGGGLVQPGGSLRLSCVASGFTFEDYQMGWVRQAPGKGLEWVSSISAMGPRTYYADSVKGRFTISRDDSKNTLYLQMNSLRAEDTAVYYCAQNLVRLGRSRWMFDYWGQGTLVTVSS
B22: ABT2-65-502 (other)
VH: EVQLLESGGGLVQPGGSLRLSCVASGFTFEDYQMGWVRQAPGKGLEWVSSVSAMGNRTYYADSVKGRFTISRDGSKNTLYLQMNSLRAEDTAVYYCAQNLVRLGRSRWMFDYWGQGTLVTVSS
B23: ABT2-10 (other)
VH: EVQLLESGGGLVQPGGSLRLSCTASGFTFNRYNMAWARQAPGKGLEWVSEIDLKGSQTYYADSVKGRFTISRDNSKNTLYLQMNSLRAEDTAVYYCAKVSISAYHMFDYWGQGTLVTVSS

How the values were obtained:
human IL-1β [1] = target: human IL-1β (human, UniProt P01584 117-269); test: cell-based or functional assay
human IL-1β [2] = target: human IL-1β (human, UniProt P01584 117-269); test: cell-based or functional assay; remark: listed apart in the source

Binder	ND50 (human IL-1β [1]) [nM]	IL-1β IC50 (human IL-1β [2])
B1	> 10000	
B2	> 10000	
B3	> 20000	
B4	> 20000	
B5	> 20000	
B6	> 10000	
B7	> 10000	
B8	> 10000	
B9		150000 pM
B10	> 10000	
B11	> 10000	
B12	> 10000	
B13		100 pM and 160 pM
B14	3	
B15		10 pM and 9 pM
B16	20	
B17	1	
B18	4	
B19	4	
B20	2	
B21	2	
B22	2	
B23	6000	
